Three molecules from US20060191037, “Plant transcription factor that is involved in sugar signalling” (published 2006) can be followed below.

Common to all, as to settings: tags: N-terminal His-tag (pET-15b, E. coli BL21(DE3))
Data set [1] addresses T1, SUSIBA2 (WRKY transcription factor; purified fraction with 70 and 68 kDa forms) (Hordeum vulgare, UniProt Q6VWJ6 Q6VWJ6:1-573). In words: EMSA; strong binding. The text has this: (§1) The 822-bp long SphI/HaeII fragment, encompassing SP8a and flanking sequences, as well as the 437-bp long BspHI/HaeII fragment, containing SP8a and downstream flanking sequence, formed prominent DNA-protein complexes with the purified SUSIBA2 fraction. Much to our surprise, however, the 510-bp long SphI/BsaI fragment, containing SP8a and upstream flanking sequence, bound only very poorly to SUSIBA2. We concluded that, in fact, the target for SUSIBA2 in the iso1 promoter is not SP8a but one or more sites downstream of the SP8a element. […] To follow up on this observation, we carried out EMSAs with oligonucleotides consisting of the iso1 SURE sequence.
(§2) EMSAs were carried out essentially as described by Sun et al. (1999). The competitor probes were prepared by annealing different non-labeled oligonucleotides in 14 mM Tris-HCl (pH 8.0), 7 mM MgCl₂.

Data set [2] addresses T1, SUSIBA2 (WRKY transcription factor; …). The data set is described as follows: EMSA; binding negligible.
Description: as §1, §2
For orientation: Mobility shift assays separate free from complexed probe on a gel.

The target is the same in data set [3]. The data set is described as follows: EMSA; two complexes, attributed to 70 and 68 kDa forms.

T1 sequence (Q6VWJ6 whole entry, the tested form may be a part, one chain of several): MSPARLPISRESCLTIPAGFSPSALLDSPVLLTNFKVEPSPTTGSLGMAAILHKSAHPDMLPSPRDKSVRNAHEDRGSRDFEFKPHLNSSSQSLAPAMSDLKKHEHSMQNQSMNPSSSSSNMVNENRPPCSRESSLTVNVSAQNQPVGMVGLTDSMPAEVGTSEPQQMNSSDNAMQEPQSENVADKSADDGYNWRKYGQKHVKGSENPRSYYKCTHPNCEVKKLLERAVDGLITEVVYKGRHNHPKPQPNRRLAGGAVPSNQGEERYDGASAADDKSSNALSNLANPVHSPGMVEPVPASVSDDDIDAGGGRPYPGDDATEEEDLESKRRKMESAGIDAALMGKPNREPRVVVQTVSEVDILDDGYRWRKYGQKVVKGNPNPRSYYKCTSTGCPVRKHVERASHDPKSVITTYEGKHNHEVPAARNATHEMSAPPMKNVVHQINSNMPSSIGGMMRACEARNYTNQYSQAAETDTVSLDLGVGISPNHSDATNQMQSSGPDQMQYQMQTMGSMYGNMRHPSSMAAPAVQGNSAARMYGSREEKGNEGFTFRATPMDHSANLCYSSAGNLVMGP

B1: iso1 SURE (SURE-b) oligonucleotide (dsDNA)
DNA 1: GGAAAACCGAAATACCAAAAAATAATAATAAAATAATAAT
DNA 2: ATTATTATTTTATTATTATTTTTTGGTATTTCGGTTTTCC
On to B1, for which the binding result in data set [1] is “binds”.

B2: iso1 SP8a oligonucleotide (dsDNA)
DNA 1: CCCTCGTGGAAGCAAAACTGTGTTTCTCGC
DNA 2: GCGAGAAACACAGTTTTGCTTCCACGAGGG
In the case of B2, the binding result in data set [2] is “no binding”.

B3: iso1 W box oligonucleotide (dsDNA)
DNA 1: TCGCTAACCAGTGACTTCCACGTTTCATCATTTATT
DNA 2: AATAAATGATGAAACGTGGAAGTCACTGGTTAGCGA
Consider B3, for which the binding result in data set [3] was “binds”.
